# Laboratory results reported in US20230279105A1 (SINGLE CELL TECHNOLOGY, published 2023).
# Positions count from the first letter of the chain named.
# B1: SCT-Fa183 (antibody, V domains shown)
# VH: QVQLQQSGAELVRPGTSVKVSCKASGYAFTNYLIEWVKQRPGQGLEWIGVISPGSGATTYNEKFKGKATLTADRSSTTAYMQLSSLTSEDSAVYFCARSAYGSPLDFWGQGTTLTVSS
# VL: DILLTQSPDILSVSPGERVSFSCRASQNIGTSIHWYQQRTNGSPRLLIKYASESISGISSRFSGSGSGTDFTLSINSVESEDIADYYCQQSNNWPFTFGSGTKLEIK
# notes: murine IgG
# B2: SCT-Fa184 (antibody, V domains shown)
# VH: B1 VH with A57G, R74K, T77S, L83F, S103H, P104V, L105F, F107Y
# VL: DIKMTQSPSSIYASLGERVTITCKASQDINSYLKWFQQKPGKSPKTLIYRANRLVDGVPSRFSGSGSGQDYSLTISSLEYEDMGIYYCLQYDEFPYTFGGGTKLEIK
# notes: murine IgG
# B3: SCT-Fa185 (antibody, V domains shown)
# VH: B1 VH with K19R, K23T, A57G, R74K, T77S, L83F, S103H, P104V, L105F, F107Y
# VL: B2 VL with I11M
# notes: murine IgG
# B4: SCT-Fa186 (antibody, V domains shown)
# VH: QVQLQQSGPELARPGASVKLSCKASGYTFRSNGISWVKQRTGQGLEWIGEIYPRSGNIYYNEKVKDKATLTADKSSNTAYMAVRSLTSEDSAVYFCARSTTVVAGGFDFWGQGTVLTVSS
# VL: DIVMTQSPSSLTVTAGEKVTMSCKSSQSLLNSRTQKNSLTWYQQKPGQPPKLLIYWASTRESGVPDRFTGSGSGTDFTLTISSVQAEDLAIYYCQNDYTYPWTFGGGTELEIK
# notes: murine IgG
# B5: SCT-Fa193 (antibody, V domains shown)
# VH: QVQLRQSGAELARPGASVKLSCKASGYTFTSYGITWVKQRTGQGLEWIGEIYPRSGNIYYNEKFKGKVTLTADKSSSTAYMELRSLTSEDSAVYFCARSTAVVAGGFDYWGQGTTLTVSS
# VL: B4 VL with I2V, A15T, K18R, M21V, S22N, T34I, T99N, E109K
# notes: murine IgG
# B6: SCT-Fa192 (antibody, V domains shown)
# VH: B5 VH with S31N
# VL: B4 VL with A15T, M21V, S22N, T34I, Y55F, G72E, T99N, E109K
# notes: murine IgG
# B7: SCT-Fa195 (antibody, V domains shown)
# VH: QVQLRQSGAELVRPGTSVKLSCKASGYTLTDYYINWVKQRPGQGLEWIARIYPGNGNTYYNEKFKGKATLTAEKSSSTVNMQVSSLTSEDSAVYFCARGGSSDRIYYYAMDYWGQGTSVTVSS
# VL: DIQVTQSSPFLSVSLGGRVIISCKASDHINNWLAWYQQKPGNAPRLLISGAINLETGVPSRFSGSGSGKDYTLSISSLQTEDVATYYCQQYWNTPYTFGGGTKLEIK
# notes: murine IgG
# B8: SCT-Fa002 (antibody, V domains shown)
# VH: EFQLQQSGPELVKPGASVKISCKASGYSFTDYNMNWVKQSNGKSLEWIGVNNPKYGTTTYNQKFKGKATLTVDQSSSTAYMQLNSLTSEDSAVYYCARRGYYYGSSYGYFDVWGTGTTVTVSS
# VL: DILMTQSPSSMSVSLGDRVSIICHASQDIRSNIGWLQQKPGKSLKGLIYHGTNLEDGVPSRFSGSGSGADYSLTISSLESEDFADYYCVQYVQFPRTFGGGTKLEIK
# notes: murine IgG
# B9: SCT-Fa020 (antibody, V domains shown)
# VH: EVQLHQSGPELVKPGASVKMSCKASGYTFTDYNMHWVKQSHGKSLEWIGYINPNNGGIIYNQNFKGKATLTVNKSSTTAYMELRSLTSEDSAVYYCVGSLDYWGQGTTLTVSS
# VL: DIQMTQTTSSLSASLGDRVTISCRASQDINNYLNWYQQKPDETVKLLIYYTSRLHSGVPSRFSGSGSGTDYSLTISNLDQEDFATYFCQQGYMLPLTFDAGTKLELK
# notes: murine IgG
# B10: SCT-Fa022 (antibody, V domains shown)
# VH: EVQLQQPGAELVKPGASVKLSCKASGYTFTSYWIHWVKQRPGRGLEWIGRIDPNSGGTKYNEKFKSKATLTVDKPSSTAYMQLSSLTSEDSAVYYCTKDGNTPYYAMDYWGQGTSVTVSS
# VL: SIVMTQTPKFLLVSAGDRVTITCKASQSVSNAVAWYQQKPGQSPKLLIYYASNRYTGVPDRFTGSGYGTDFTFTISTVQAEDLAVYFCQQDYSSPLTFGAGTKLELK
# notes: murine IgG
# B11: SCT-Fa023 (antibody, V domains shown)
# VH: EVQLQQSGAELVKPGASVKLSCTASDFNIKDYYLHWVKQRTEQGLEWIGRIDPDDGETKYGPKFQGKATITADTSSNTAFLQLSSLTSEDTAVYFCSRSNPYYFDYWGQGTTLTVSS
# VL: DIQMNQSPSSLSASLGDTITITCHVSQNINVWLSWYQQKPGNIPKLLIYKASNLHTGVTSRFSGSGAGTGFTLTISSLQPEDIATYYCQQGQNYPYTFGGGTKLEIK
# notes: murine IgG
# B12: SCT-Fa026 (antibody, V domains shown)
# VH: EVQLQQSGAELVKPGASVKLSCTASGFNIKDFYMHWVHQRTEKGLEWIGRIDPEDGKTKYAPKFQGKATITADTSSNTAYLQLSSLTSEDTAVYYCARSNPYFFDYWGQGTTLTVSS
# VL: B11 VL with V25A, N28T, T59P, A67S, T74N, Q89H, N93S
# notes: murine IgG
# B13: SCT-Fa030 (antibody, V domains shown)
# VH: B12 VH with F32Y, H38K, K43Q, K57E, Y80S, T112P
# VL: B11 VL with V25A, N28T, N53K, L54M, T59P, A67S, T74N, Q89H, N93S
# notes: murine IgG
# B14: SCT-Fa038 (antibody, V domains shown)
# VH: B12 VH with A24V, F32Y, H38K, K43Q, D55N, G56D, T58I, A79V
# VL: B11 VL with V25A, N28T, T59P, A67S, T74N, Q89H, N93S
# notes: murine IgG
# B15: SCT-Fa027 (antibody, V domains shown)
# VH: B11 VH with D26G, L34I, E42D, D55N, G61A, F80Y, S84G, F95Y, S97A, N100S
# VL: B11 VL with V25A, T59P, A67S, G68V, Y94F, K107I
# notes: murine IgG
# B16: SCT-Fa028 (antibody, V domains shown)
# VH: B12 VH with F32Y, H38K, E42D, K43H, E54D, D55N, K57E, S84G, N100S, F103Y
# VL: B11 VL with V25A, T59P, A67S, G68V, Y94F
# notes: murine IgG
# B17: SCT-Fa003 (antibody, V domains shown)
# VH: EGKLEESGGGLVQPGGSMKLSCAASGFTFSDAWMDWVRQSPKKGLEWVAEIRNKANKHSKHYAESVKGRFTISRDDSKSSVYLQMNSLRAEDTGIYYCSYDYIFAYWGQGTLVTVSA
# VL: DVVMTQTPLSLPVSLGDQASISCRSSQSLVHSNGNTYLHWYLQKPGQSPKLLIYKVSNRFSGVPDRFSGSGSGTDFTLKISRVEAEDLGVYFCSQSTHVPWTFGGGTKLEIK
# notes: murine IgG
# B18: SCT-Fa031 (antibody, V domains shown)
# VH: B11 VH with D26G, L34M, D54E, G61V, Q82H, S84T, F95Y, S97A
# VL: B11 VL with I19V, V25A, N28T, T59P, A67S
# notes: murine IgG
# B19: SCT-Fa033 (antibody, V domains shown)
# VH: B12 VH with F32Y, H38R, K43Q, K57E, D73A, A79P, S85G, A97G, F103Y
# VL: B11 VL with T18R, T22N, V25A, T59P, A67S, G68V, G70V
# notes: murine IgG
# B20: SCT-Fa034 (antibody, V domains shown)
# VH: B11 VH with A24D, S25F, D26G, L34M, D54E, G61V, Q82H, S84T, F95Y, S97A
# VL: B11 VL with I19V, V25A, N28T, T59P, A67S
# notes: murine IgG
# B21: SCT-Fa035 (antibody, V domains shown)
# VH: B11 VH with A24D, S25F, D26G, L34M, D54E, G61V, Q82H, S84T, F95Y, S97A
# VL: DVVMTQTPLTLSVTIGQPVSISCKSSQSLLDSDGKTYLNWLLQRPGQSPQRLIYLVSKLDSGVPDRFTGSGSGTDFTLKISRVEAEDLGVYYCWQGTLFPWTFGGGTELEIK
# notes: murine IgG
# B22: SCT-Fa043 (antibody, V domains shown)
# VH: EVQLQQSGAELVRPGASVKLSCTASGFNIKDYYMHWVKQRTEQGLEWIGRIDPDNDEIKYAPKFQGKATLTADTSSNTASLQLSGLTSEDTAVYYCARSSPYYFDYWGQGTTLTVSS
# VL: B11 VL with V25A, T59P, A67S, G68V, Y94I, K103Q
# notes: murine IgG
# B23: SCT-Fa046 (antibody, V domains shown)
# VH: EVQLQQSGPELVKPGASVKISCKASGYTFTDYNMHWVKQSHGKSLAWIGYIYPYNGGTGYNQKFKNKATLTVDDSSSTAYMDLRSLTSDDSAVYYCAREDYGSREWFAYWGQGTLVTVSA
# VL: B17 VL with H39Y, W101L, G105A, I111L
# notes: murine IgG
# B24: SCT-Fa047 (antibody, V domains shown)
# VH: EVQLQQSGPELVKPGASVKISCKASGYTFTDYYMNWVKQSHGKSLEWIGDINLNNGGTVYNQKFRGKATLTVDKSSSTAYMELRSLTSEDSAVYYCEGLGGYWGQGTTLTVSS
# VL: DVLMTQTPLSLPVSLGDQVSISCRSSQSIVHSNGNTYLEWYLQKPGQSPNLLIYKVANRLSGVPDRFSGSGSGTDFTLKISRVEAEDLGVYYCFQGSHVPFTFGSGTKLEIK
# notes: murine IgG
# B25: SCT-Fa048 (antibody, V domains shown)
# VH: B24 VH with F29L, K43E, L53P, G57D, T58I, V59N, R65K, V72A
# VL: B24 VL with V19A, S28T, K44T, N50K, A57S, L60I
# notes: murine IgG
# B26: SCT-Fa049 (antibody, V domains shown)
# VH: B24 VH with A16S, F29L, K43E, L53P, G57D, T58I, V59N, R65K, V72A
# VL: B24 VL with V19A, S28T, K44T, N50K, A57S, L60I
# notes: murine IgG
# B27: SCT-Fa005 (antibody, V domains shown)
# VH: EVHLQQSVAEVVRPGASVNLSCTVSGFNNKNTYMYWVKQRPEQGLEWIGIIDPANGNVKYAPKFQGKATITADTSSNTAYLQLSSLTSEDTAIYYCARGSSRLYYALDYWGQGTSVTVSS
# VL: DIVLTQSPASLAVSLGQRATISCRASESVDSYGNSFMHWYQQKPGQPPKLLIYRASNLESGIPARFSGSGSRTDFTLTIYPVEADDVATYYCQQSNEDPYTFGGGTKLEIK
# notes: murine IgG
# B28: SCT-Fa050 (antibody, V domains shown)
# VH: EVQLQQSGPMLVKPGASVKMSCKASGNTFTAFYMSWVKQSHGKSLEWIGVVNPYNGGAGYNQKFKGKATLTVDKSSSTAYMELNGLTSEDSAVYYCLLWEFAHWGQGTLVTVSA
# VL: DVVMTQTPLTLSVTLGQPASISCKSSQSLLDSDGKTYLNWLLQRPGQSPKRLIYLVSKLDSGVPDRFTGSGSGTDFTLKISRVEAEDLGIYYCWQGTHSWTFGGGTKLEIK
# notes: murine IgG
# Molecular target: T1, Human TIM-3 Human Fc tagged protein (human, fluorescently labeled with HiLyte Fluor 555 (sites not given))
# T1 construct: Bought construct; also called TIM-3 protein tagged with human Fc; ACROBiosystems catalog no: TM3-H5258
# Assay: capture slide probed with labeled TIM-3-Fc;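 also: IgG from single CD138-enriched plasma cells, isolated from lymphocytes, immobilized on a derivatized glass slide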
# Source text: Antibody secreted from each plasma cell was captured on a derivatized microscope slide.
row,Binder,binding result
1,B1,binds
2,B2,binds
3,B3,binds
4,B4,binds
5,B5,binds
6,B6,binds
7,B7,binds
8,B8,binds
9,B9,binds
10,B10,binds
11,B11,binds
12,B12,binds
13,B13,binds
14,B14,binds
15,B15,binds
16,B16,binds
17,B17,binds
18,B18,binds
19,B19,binds
20,B20,binds
21,B21,binds
22,B22,binds
23,B23,binds
24,B24,binds
25,B25,binds
26,B26,binds
27,B27,binds
28,B28,binds
